Assay results taken from US20240228596A1 (VIB VZW, published 2024).
Residue numbers refer to the chain shown, from its start.

B1: VHH4.2XAS58 (VHH)
VHH: QVQLQESGGGLVQSGGSLRLSCAGSGFPLEAFSIGWFRQAPGKEREFLAAITFNSDATYYADSVKGRFTISRDNAKNTAYLQMNSLKPDDTAVYSCAAGGNHYNPQYYHDYDKYDHWGQGTQVTVFS
B2: VHH3.83 (VHH)
VHH: QVQLQESGGGLVQPGDSLRLSCVLSGGVFTSYAMGWFRQAPGKEREFLAAITFNSDATYYADSVKGRFTISRDNAKNTAYLQMNSLKPNDTAVYSCAAGGNHYNPQYYHDYDKYDHWGQGTQVTVSS
B3: VHH4.2XAS43 (VHH)
VHH: B2 VHH with P14A, R19T, V23A, L24A, G27R, V28T, F29G, T30S, S31N, N89D
B4: VHH4.1XAS51 (VHH)
VHH: QVQLQESGGGLVQAGGSLRLSCTASTPTIKNYAMGWFRQAPGKEREFLAAITFNSDATYYADSVKGRFTISRDNAKNTAYLQMNSLKPDDTAVYSCAAGGNHYNPQYYHDYDKYDYWGQGTQVTVSS
B5: VHH4.2XAS31 (VHH)
VHH: QVQLQESGGGFVQAGGSLRLSCATSGHRFSDYAVAWFRQTPGKEREFLAAITFNSDATYYADSVKGRFTISRDNAKNTAYLQMNSLKPDDTAVYSCAAGGNHYNPQYYHDYDKYDHWGQGTQVTVSS
B6: VHH3.42 (VHH)
VHH: QVQLQESGGGLVQPGGSLRLSCAASGSAVSINDMGWYRQPPGKQRELVATITKTGSTNYADSVKGRFTISRDNAKNAVYLEMNSLKPEDTATYYCNAWLPYGMGPDYYGMELWGKGTQVTVSS
B7: VHH3.92 (VHH)
VHH: B6 VHH with S27K, N32S, S56N, V63A, K64Q, N76S, N83A, T92V
B8: VHH3.117 (VHH)
VHH: B6 VHH with S27K, N32S, V63A, K64Q, A74T, N76S, N83K, T92V
B9: VHH3.89 (VHH)
VHH: QVQLQESGGGLVQPGGSLRLSCAASGFTLDYYAIGWFREVPGKEREGLSRIDSSDGSTYYADSVKGRFTISRDNTKNIVYLQMNNLKPEDTAVYYCATDPIIQGRNWYWTGWGQGTQVTVSS

Columns and labels:
[1] = biological target: SARS-COV-2 RBD-SD1 (SARS-COV-2, UniProt P0DTC2 319-591); experiment: periplasmic extract ELISA
[2] = biological target: T1, SARS-COV-2 Wuhan WT Spike_del18 on VSV-delG pseudotyped particles (SARS-COV-2, UniProt P0DTC2 14-1255); experiment: cell-based or functional assay
[3] = biological target: RBD of Rp3 sarbecovirus displayed on yeast cells (Rp3 sarbecovirus, UniProt Q3I5J5 322-503); experiment: flow cytometry, yeast-displayed RBD (data not shown)
[4] = biological target: T2, RBD of SARS-COV-1 displayed on yeast cells (SARS-COV-1, UniProt P59594 318-517); experiment: as above
[5] = biological target: T3, RBD of HKU3 sarbecovirus displayed on yeast cells (HKU3 sarbecovirus, UniProt Q3LZX1 322-504); experiment: as above
[6] = biological target: T1, SARS-COV-2 Wuhan WT Spike_del18 on …; experiment: cell-based or functional assay; remark: listed apart in the source
[7] = biological target: SARS-COV-1 spike protein on VSV-delG pseudotyped particles (SARS-COV-1, UniProt P59594 14-1255); experiment: cell-based or functional assay
[8] = biological target: T1, SARS-COV-2 Wuhan WT Spike_del18 on …; experiment: cell-based or functional assay; remark: listed apart in the source
[9] = biological target: T3, RBD of HKU3 sarbecovirus displayed on …; experiment: flow cytometry, yeast-displayed RBD
[10] = biological target: T2, RBD of SARS-COV-1 displayed on yeast …; experiment: flow cytometry, yeast-displayed RBD

| Binder | binding result [1] | binding result [5] | IC50 Mean VSV-dG-spike SARS-COV-2 [6] | neutralization IC50 [8] | other results |
| --- | --- | --- | --- | --- | --- |
| B1 | binds |  |  |  |  |
| B2 |  | binds |  |  | IC50 ug/ml, pseudoneutralization assay [2]: 0.262 µg/mL; binding result [3]: binds; binding result [4]: binds |
| B3 | binds |  |  |  |  |
| B4 | binds |  |  |  |  |
| B5 | binds |  |  |  |  |
| B6 |  | binds | 0.8 µg/mL | 54.8 nM | IC50 Mean VSV-dG-spike SARS-COV-1 [7]: 0.19 µg/mL |
| B7 |  | binds | 0.21 µg/mL | 13.6 nM |  |
| B8 |  |  | 0.2 µg/mL | 13.7 nM | IC50 ug/ml, pseudoneutralization assay [2]: 0.539 µg/mL; IC50 Mean VSV-dG-spike SARS-COV-1 [7]: 0.016 µg/mL; binding result [9]: binds |
| B9 |  |  |  |  | binding result [10]: binds; binding result [9]: binds |
